For this assay, the target named is Human IgE antibody (human). Description: cell-based or functional assay.

B1: FP140 (Fc fusion)
chain: DKTHTCPPCPAPEAAGAPSVFLFPPKPKDTLMISRTPEVTCVVVDVSHEDPEVKFNWYVDGVEVHNAKTKPREEQQNSTYRVVSVLTVLHQDWLNGKEYKCKVSNKALKAPIEKTISKAKGQPREPQVYTLPPSRDELTKNQVSLTCLVKGFYPSDIAVEWESNGQPENNYKTTPPVLDSDGSFFLYSKLTVDKSRWQQGNVFSCSVMHEALHNHYTQKSLSLSPGGSSAPGSSAPGSSAPTALGRRKAEDRIKETLWADGVKIDEKDFEHIKSSHEDYFAVEYGKGSGYYDVNKKMDSEDTALCVGAVVTNMFHWWVDQNRENIEKFKKQDPENNGVMKFEGVKEATVDELNEFYRDNRDNYADQSRFFDLIKKHFGNKALNPEELFELYFNGFYYGSSHRYIEDNEPAQNNLFSKVLENNKLLNPERSYGIDGFSNNVINALKSHKVLGLVYTTPLRYRHIISMWGADIDQDGKVKAIYVTDSDDREITFNDNSKRRIGMIRYDVLVDDNGNIRFTGKGATHKEEGAIYAGLYSLSRGDEVWEDYFKKYPEVQENL
Consider B1, for which the “EC50 CE-SDS IgE” value amounted to 430 pM and the “EC50 MSD IgE” value stood at 1350 pM.

B2: FP141 (Fc fusion)
chain 1: DKTHTCPPCPAPEAAGAPSVFLFPPKPKDTLMISRTPEVTCVVVDVSHEDPEVKFNWYVDGVEVHNAKTKPREEQQNSTYRVVSVLTVLHQDWLNGKEYKCKVSNKALKAPIEKTISKAKGQPREPQVYTLPPSRDELTKNQVSLWCLVKGFYPSDIAVEWESNGQPENNYKTTPPVLDSDGSFFLYSKLTVDKSRWQQGNVFSCSVMHEALHNHYTQKSLSLSPGGGGSGGGGSGGGGSTALGRRKAEDRIKETLWADGVKIDEKDFEHIKSSHEDYFAVEYGKGSGYYDVNKKMDSEDTALCVGAVVTNMFHWWVDQNRENIEKFKKQDPENNGVMKFEGVKEATVDELNEFYRDNRDNYADQSRFFDLIKKHFGNKALNPEELFELYFNGFYYGSSHRYIEDNEPAQNNLFSKVLENNKLLNPERSYGIDGFSNNVINALKSHKVLGLVYTTPLRYRHIISMWGADIDQDGKVKAIYVTDSDDREITFNDNSKRRIGMIRYDVLVDDNGNIRFTGKGATHKEEGAIYAGLYSLSRGDEVWEDYFKKYPEVQENL
chain 2: DKTHTCPPCPAPEAAGAPSVFLFPPKPKDTLMISRTPEVTCVVVDVSHEDPEVKFNWYVDGVEVHNAKTKPREEQQNSTYRVVSVLTVLHQDWLNGKEYKCKVSNKALKAPIEKTISKAKGQPREPQVYTLPPSRDELTKNQVSLSCAVKGFYPSDIAVEWESNGQPENNYKTTPPVLDSDGSFFLVSKLTVDKSRWQQGNVFSCSVMHEALHNHYTQKSLSLSPG
With B2, the “EC50 CE-SDS IgE” value was 750 pM and the “EC50 MSD IgE” value was determined as 874 pM.

B3: FP142 (Fc fusion)
chain 1: DKTHTCPPCPAPEAAGAPSVFLFPPKPKDTLMISRTPEVTCVVVDVSHEDPEVKFNWYVDGVEVHNAKTKPREEQQNSTYRVVSVLTVLHQDWLNGKEYKCKVSNKALKAPIEKTISKAKGQPREPQVYTLPPCRDELTKNQVSLWCLVKGFYPSDIAVEWESNGQPENNYKTTPPVLDSDGSFFLYSKLTVDKSRWQQGNVFSCSVMHEALHNHYTQKSLSLSPGGGGSGGGGSGGGGSTALGRRKAEDRIKETLWADGVKIDEKDFEHIKSSHEDYFAVEYGKGSGYYDVNKKMDSEDTALCVGAVVTNMFHWWVDQNRENIEKFKKQDPENNGVMKFEGVKEATVDELNEFYRDNRDNYADQSRFFDLIKKHFGNKALNPEELFELYFNGFYYGSSHRYIEDNEPAQNNLFSKVLENNKLLNPERSYGIDGFSNNVINALKSHKVLGLVYTTPLRYRHIISMWGADIDQDGKVKAIYVTDSDDREITFNDNSKRRIGMIRYDVLVDDNGNIRFTGKGATHKEEGAIYAGLYSLSRGDEVWEDYFKKYPEVQENL
chain 2: DKTHTCPPCPAPEAAGAPSVFLFPPKPKDTLMISRTPEVTCVVVDVSHEDPEVKFNWYVDGVEVHNAKTKPREEQQNSTYRVVSVLTVLHQDWLNGKEYKCKVSNKALKAPIEKTISKAKGQPREPQVCTLPPSRDELTKNQVSLSCAVKGFYPSDIAVEWESNGQPENNYKTTPPVLDSDGSFFLVSKLTVDKSRWQQGNVFSCSVMHEALHNHYTQKSLSLSPG
On to B3, for which the “EC50 CE-SDS IgE” value was determined as 3800 pM.

B4: FP144 (Fc fusion)
chain: DKTHTCPPCPAPEAAGAPSVFLFPPKPKDTLMISRTPEVTCVVVDVSHEDPEVKFNWYVDGVEVHNAKTKPREEQQNSTYRVVSVLTVDHHDWLNGKEYKCKVSNKALKAPIEKTISKAKGQPREPQVYTLPPSRDELTKNQVSLTCLVKGFYPSDIAVEWESNGQPENNYKTTPPVLDSDGSFFLYSKLTVDKSRWQQGNVFSCSVMHEALHSHYTQKSLSLSPGGGGSGGGGSGGGGSTALGRRKAEDRIKETLWADGVKIDEKDFEHIKSSHEDYFAVEYGKGSGYYDVNKKMDSEDTALCVGAVVTNMFHWWVDQNRENIEKFKKQDPENNGVMKFEGVKEATVDELNEFYRDNRDNYADQSRFFDLIKKHFGNKALNPEELFELYFNGFYYGSSHRYIEDNEPAQNNLFSKVLENNKLLNPERSYGIDGFSNNVINALKSHKVLGLVYTTPLRYRHIISMWGADIDQDGKVKAIYVTDSDDREITFNDNSKRRIGMIRYDVLVDDNGNIRFTGKGATHKEEGAIYAGLYSLSRGDEVWEDYFKKYPEVQENL
Regarding B4, the “EC50 CE-SDS IgE” value is 660 pM.

B5: FP143 (Fc fusion)
chain: DKTHTCPPCPAPEAAGAPSVFLFPPKPKDTLMISRTPEVTCVVVDVSHEDPEVKFNWYVDGVEVHNAKTKPREEQQNSTYRVVSVLTVLHQDWLNGKEYKCKVSNKALKAPIEKTISKAKGQPREPQVYTLPPSRDELTKNQVSLTCLVKGFYPSDIAVEWESNGQPENNYKTTPPVLDSDGSFFLYSKLTVDKSRWQQGNVFSCSVLHEALHSHYTQKSLSLSPGGGGSGGGGSGGGGSTALGRRKAEDRIKETLWADGVKIDEKDFEHIKSSHEDYFAVEYGKGSGYYDVNKKMDSEDTALCVGAVVTNMFHWWVDQNRENIEKFKKQDPENNGVMKFEGVKEATVDELNEFYRDNRDNYADQSRFFDLIKKHFGNKALNPEELFELYFNGFYYGSSHRYIEDNEPAQNNLFSKVLENNKLLNPERSYGIDGFSNNVINALKSHKVLGLVYTTPLRYRHIISMWGADIDQDGKVKAIYVTDSDDREITFNDNSKRRIGMIRYDVLVDDNGNIRFTGKGATHKEEGAIYAGLYSLSRGDEVWEDYFKKYPEVQENL
Regarding B5, the “EC50 CE-SDS IgE” value was 35 pM and the “EC50 MSD IgE” value was 1630 pM.

B6: FP139 (Fc fusion)
chain: DKTHTCPPCPAPEAAGAPSVFLFPPKPKDTLMISRTPEVTCVVVDVSHEDPEVKFNWYVDGVEVHNAKTKPREEQQNSTYRVVSVLTVLHQDWLNGKEYKCKVSNKALKAPIEKTISKAKGQPREPQVYTLPPSRDELTKNQVSLTCLVKGFYPSDIAVEWESNGQPENNYKTTPPVLDSDGSFFLYSKLTVDKSRWQQGNVFSCSVMHEALHNHYTQKSLSLSPGGSSAPGSSAPTALGRRKAEDRIKETLWADGVKIDEKDFEHIKSSHEDYFAVEYGKGSGYYDVNKKMDSEDTALCVGAVVTNMFHWWVDQNRENIEKFKKQDPENNGVMKFEGVKEATVDELNEFYRDNRDNYADQSRFFDLIKKHFGNKALNPEELFELYFNGFYYGSSHRYIEDNEPAQNNLFSKVLENNKLLNPERSYGIDGFSNNVINALKSHKVLGLVYTTPLRYRHIISMWGADIDQDGKVKAIYVTDSDDREITFNDNSKRRIGMIRYDVLVDDNGNIRFTGKGATHKEEGAIYAGLYSLSRGDEVWEDYFKKYPEVQENL
In the case of B6, the “EC50 CE-SDS IgE” value worked out at 110 pM.

The values above are taken from patent US20250340857A1 (SEISMIC THERAPEUTIC, published 2025).
